Experimental data reported in article PMC9482650, “Quantitative fragmentomics allow affinity mapping of interactomes” (Nature Communications, 2022).

The binders below were run against AHNAK1, Q09666 (assay: holdup assay). Conditions: plain residues with an end cap or a label only (N-terminal biotin on a linker: ado-ado).
Set-up: key: below the threshold = too weak to quantify, mostly under pKd 3.1 to 4

AHNAK1, Q09666, sequence (Q09666 4-100): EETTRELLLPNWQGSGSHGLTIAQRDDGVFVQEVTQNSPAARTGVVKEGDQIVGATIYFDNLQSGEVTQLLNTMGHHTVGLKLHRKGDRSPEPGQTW

Binder | pKd
GFGEERESIL [KIDINS220, Q9ULH0] | below the threshold

Each binder was assayed against T1, ARHGAP21, Q5T5U3 (assay: holdup assay). Conditions: plain residues with an end cap or a label only (N-terminal biotin on a linker: ado-ado).
T1 sequence (Q5T5U3 45-169, limits assumed, looked up): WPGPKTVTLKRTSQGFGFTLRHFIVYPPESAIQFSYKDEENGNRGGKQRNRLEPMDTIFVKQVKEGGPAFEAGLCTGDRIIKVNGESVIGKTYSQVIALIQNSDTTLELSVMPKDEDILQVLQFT
Set-up: key: below the threshold = too weak to quantify, mostly under pKd 3.1 to 4

Binder | pKd
GFGEERESIL [KIDINS220, Q9ULH0] | 3.9

Each binder was assayed against T2, DFNB31_1, Q9P202 (assay: holdup assay). Conditions: plain residues with an end cap or a label only (N-terminal biotin on a linker: ado-ado).
T2 sequence (Q9P202 135-233, limits assumed, looked up): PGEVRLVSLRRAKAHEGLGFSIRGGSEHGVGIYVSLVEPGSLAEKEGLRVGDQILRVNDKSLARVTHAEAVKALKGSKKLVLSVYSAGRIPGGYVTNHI
Set-up: key: below the threshold = too weak to quantify, mostly under pKd 3.1 to 4

Binder | pKd
GFGEERESIL [KIDINS220, Q9ULH0] | below the threshold

These binders were tested against DLG2_2, Q15700 (assay: holdup assay). Conditions: plain residues with an end cap or a label only (N-terminal biotin on a linker: ado-ado).
DLG2_2, Q15700, sequence (Q15700 189-283): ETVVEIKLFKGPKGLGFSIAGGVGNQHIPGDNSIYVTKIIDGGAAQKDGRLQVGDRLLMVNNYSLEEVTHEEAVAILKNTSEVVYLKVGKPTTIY
Set-up: key: below the threshold = too weak to quantify, mostly under pKd 3.1 to 4

Binder | pKd
GFGEERESIL [KIDINS220, Q9ULH0] | below the threshold

These binders were tested against T3, DLG3_2, Q92796 (assay: holdup assay). Conditions: plain residues with an end cap or a label only (N-terminal biotin on a linker: ado-ado).
T3 sequence (Q92796 221-321, limits assumed, looked up): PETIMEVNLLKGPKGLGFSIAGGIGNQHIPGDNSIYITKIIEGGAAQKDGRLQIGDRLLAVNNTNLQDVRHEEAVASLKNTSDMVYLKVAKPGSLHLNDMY
Set-up: key: below the threshold = too weak to quantify, mostly under pKd 3.1 to 4

Binder | pKd
GFGEERESIL [KIDINS220, Q9ULH0] | below the threshold

What follows are binders tested against T4, DLG3_3, Q92796 (assay: holdup assay). Conditions: plain residues with an end cap or a label only (N-terminal biotin on a linker: ado-ado).
T4 sequence (Q92796 374-475, limits assumed, looked up): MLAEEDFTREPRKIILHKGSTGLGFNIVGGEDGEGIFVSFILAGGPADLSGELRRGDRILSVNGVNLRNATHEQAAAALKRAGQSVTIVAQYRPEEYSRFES
Set-up: key: below the threshold = too weak to quantify, mostly under pKd 3.1 to 4

Binder | pKd
GFGEERESIL [KIDINS220, Q9ULH0] | below the threshold

These binders were tested against DLG4_2, P78352 (assay: holdup assay). Conditions: plain residues with an end cap or a label only (N-terminal biotin on a linker: ado-ado).
DLG4_2, P78352, sequence (P78352 155-259): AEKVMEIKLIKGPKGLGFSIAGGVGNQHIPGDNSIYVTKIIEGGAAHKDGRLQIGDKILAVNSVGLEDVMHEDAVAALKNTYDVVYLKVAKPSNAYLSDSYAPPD
Set-up: key: below the threshold = too weak to quantify, mostly under pKd 3.1 to 4

Binder | pKd
GFGEERESIL [KIDINS220, Q9ULH0] | 3.5

The binders below were run against FRMPD3, Q5JV73 (assay: holdup assay). Conditions: plain residues with an end cap or a label only (N-terminal biotin on a linker: ado-ado).
FRMPD3, Q5JV73, sequence (Q5JV73 12-100): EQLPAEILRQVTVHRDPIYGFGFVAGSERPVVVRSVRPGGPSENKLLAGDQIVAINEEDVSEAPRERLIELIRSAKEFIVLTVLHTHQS
Set-up: key: below the threshold = too weak to quantify, mostly under pKd 3.1 to 4

Binder | pKd
GFGEERESIL [KIDINS220, Q9ULH0] | below the threshold

The binders below were run against GRASP, Q7Z6J2 (assay: holdup assay). Conditions: plain residues with an end cap or a label only (N-terminal biotin on a linker: ado-ado).
GRASP, Q7Z6J2, sequence (Q7Z6J2 96-193): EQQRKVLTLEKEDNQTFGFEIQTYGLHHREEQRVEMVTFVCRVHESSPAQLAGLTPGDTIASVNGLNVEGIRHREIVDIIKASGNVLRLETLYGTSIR
Set-up: key: below the threshold = too weak to quantify, mostly under pKd 3.1 to 4

Binder | pKd
GFGEERESIL [KIDINS220, Q9ULH0] | 3.48

The binders below were run against Inadl_6, Q8NI35 (assay: holdup assay). Conditions: plain residues with an end cap or a label only (N-terminal biotin on a linker: ado-ado).
Inadl_6, Q8NI35, sequence (Q8NI35 1058-1167): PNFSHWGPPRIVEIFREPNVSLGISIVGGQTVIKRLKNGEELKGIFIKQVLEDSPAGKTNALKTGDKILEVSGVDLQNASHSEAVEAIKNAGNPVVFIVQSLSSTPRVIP
Set-up: key: below the threshold = too weak to quantify, mostly under pKd 3.1 to 4

Binder | pKd
GFGEERESIL [KIDINS220, Q9ULH0] | 4.1

The binders below were run against LNX1_2, Q8TBB1 (assay: holdup assay). Conditions: plain residues with an end cap or a label only (N-terminal biotin on a linker: ado-ado).
LNX1_2, Q8TBB1, sequence (Q8TBB1 371-470): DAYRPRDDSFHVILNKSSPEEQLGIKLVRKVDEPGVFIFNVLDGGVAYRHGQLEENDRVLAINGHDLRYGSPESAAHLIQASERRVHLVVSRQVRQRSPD
Set-up: key: below the threshold = too weak to quantify, mostly under pKd 3.1 to 4

Binder | pKd
GFGEERESIL [KIDINS220, Q9ULH0] | below the threshold

The binders below were run against T5, LRRC7, Q96NW7 (assay: holdup assay). Conditions: plain residues with an end cap or a label only (N-terminal biotin on a linker: ado-ado).
T5 sequence (Q96NW7 1440-1537, limits assumed, looked up): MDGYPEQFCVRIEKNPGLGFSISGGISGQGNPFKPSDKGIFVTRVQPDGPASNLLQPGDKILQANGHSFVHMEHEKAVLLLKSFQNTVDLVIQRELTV
Set-up: key: below the threshold = too weak to quantify, mostly under pKd 3.1 to 4

Binder | pKd
GFGEERESIL [KIDINS220, Q9ULH0] | below the threshold

These binders were tested against T6, MPP2, Q14168 (assay: holdup assay). Conditions: plain residues with an end cap or a label only (N-terminal biotin on a linker: ado-ado).
T6 sequence (Q14168 180-250, limits assumed, looked up): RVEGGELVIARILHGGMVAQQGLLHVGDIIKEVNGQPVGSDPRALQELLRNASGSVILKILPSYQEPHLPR
Set-up: key: below the threshold = too weak to quantify, mostly under pKd 3.1 to 4

Binder | pKd
GFGEERESIL [KIDINS220, Q9ULH0] | below the threshold

Each binder was assayed against NHERF2_2, Q15599 (assay: holdup assay). Conditions: plain residues with an end cap or a label only (N-terminal biotin on a linker: ado-ado).
NHERF2_2, Q15599, sequence (Q15599 142-238): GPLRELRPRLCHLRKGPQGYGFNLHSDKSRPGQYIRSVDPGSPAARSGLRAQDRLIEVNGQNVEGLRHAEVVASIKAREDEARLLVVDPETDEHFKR
Set-up: key: below the threshold = too weak to quantify, mostly under pKd 3.1 to 4

Binder | pKd
GFGEERESIL [KIDINS220, Q9ULH0] | 4.67

What follows are binders tested against NHERF4_2, Q86UT5 (assay: holdup assay). Conditions: plain residues with an end cap or a label only (N-terminal biotin on a linker: ado-ado).
NHERF4_2, Q86UT5, sequence (Q86UT5 220-308): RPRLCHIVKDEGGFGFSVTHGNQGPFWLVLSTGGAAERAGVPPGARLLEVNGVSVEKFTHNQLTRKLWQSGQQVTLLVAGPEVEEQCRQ
Set-up: key: below the threshold = too weak to quantify, mostly under pKd 3.1 to 4

Binder | pKd
GFGEERESIL [KIDINS220, Q9ULH0] | below the threshold

Each binder was assayed against PDZRN4_1, Q6ZMN7 (assay: holdup assay). Conditions: plain residues with an end cap or a label only (N-terminal biotin on a linker: ado-ado).
PDZRN4_1, Q6ZMN7, sequence (Q6ZMN7 213-318): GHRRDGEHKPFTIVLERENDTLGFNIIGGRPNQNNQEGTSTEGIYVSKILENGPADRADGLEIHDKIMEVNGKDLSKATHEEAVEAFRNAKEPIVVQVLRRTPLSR
Set-up: key: below the threshold = too weak to quantify, mostly under pKd 3.1 to 4

Binder | pKd
GFGEERESIL [KIDINS220, Q9ULH0] | 4.61

Each binder was assayed against T7, PTPN13_1, Q12923 (assay: holdup assay). Conditions: plain residues with an end cap or a label only (N-terminal biotin on a linker: ado-ado).
T7 sequence (Q12923 1088-1188, limits assumed, looked up): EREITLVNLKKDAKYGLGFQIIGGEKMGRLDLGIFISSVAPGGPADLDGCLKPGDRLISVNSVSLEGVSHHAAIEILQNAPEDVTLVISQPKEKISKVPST
Set-up: key: below the threshold = too weak to quantify, mostly under pKd 3.1 to 4

Binder | pKd
GFGEERESIL [KIDINS220, Q9ULH0] | below the threshold

What follows are binders tested against PTPN3, P26045 (assay: holdup assay). Conditions: plain residues with an end cap or a label only (N-terminal biotin on a linker: ado-ado).
PTPN3, P26045, sequence (P26045 505-587): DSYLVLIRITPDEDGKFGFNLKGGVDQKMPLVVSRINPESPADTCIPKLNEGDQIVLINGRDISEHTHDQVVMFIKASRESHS
Set-up: key: below the threshold = too weak to quantify, mostly under pKd 3.1 to 4

Binder | pKd
GFGEERESIL [KIDINS220, Q9ULH0] | 5.22

These binders were tested against SCRIB_1, Q14160 (assay: holdup assay). Conditions: plain residues with an end cap or a label only (N-terminal biotin on a linker: ado-ado).
SCRIB_1, Q14160, sequence (Q14160 718-814): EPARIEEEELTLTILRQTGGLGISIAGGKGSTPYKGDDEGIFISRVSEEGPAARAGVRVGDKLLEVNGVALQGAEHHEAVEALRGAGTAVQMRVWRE
Set-up: key: below the threshold = too weak to quantify, mostly under pKd 3.1 to 4

Binder | pKd
GFGEERESIL [KIDINS220, Q9ULH0] | below the threshold

The binders below were run against SCRIB_2, Q14160 (assay: holdup assay). Conditions: plain residues with an end cap or a label only (N-terminal biotin on a linker: ado-ado).
SCRIB_2, Q14160, sequence (Q14160 857-960): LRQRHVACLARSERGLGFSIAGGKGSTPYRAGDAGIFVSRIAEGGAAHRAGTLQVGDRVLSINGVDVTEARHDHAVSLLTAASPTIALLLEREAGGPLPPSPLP
Set-up: key: below the threshold = too weak to quantify, mostly under pKd 3.1 to 4

Binder | pKd
GFGEERESIL [KIDINS220, Q9ULH0] | below the threshold

These binders were tested against SCRIB_3, Q14160 (assay: holdup assay). Conditions: plain residues with an end cap or a label only (N-terminal biotin on a linker: ado-ado).
SCRIB_3, Q14160, sequence (Q14160 999-1103): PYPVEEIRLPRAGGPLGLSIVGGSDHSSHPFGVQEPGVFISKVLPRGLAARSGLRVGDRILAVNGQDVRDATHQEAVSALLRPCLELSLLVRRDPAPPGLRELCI
Set-up: key: below the threshold = too weak to quantify, mostly under pKd 3.1 to 4

Binder | pKd
GFGEERESIL [KIDINS220, Q9ULH0] | 4.56

These binders were tested against T8, SHANK1, Q9Y566 (assay: holdup assay). Conditions: plain residues with an end cap or a label only (N-terminal biotin on a linker: ado-ado).
T8 sequence (Q9Y566 658-767, limits assumed, looked up): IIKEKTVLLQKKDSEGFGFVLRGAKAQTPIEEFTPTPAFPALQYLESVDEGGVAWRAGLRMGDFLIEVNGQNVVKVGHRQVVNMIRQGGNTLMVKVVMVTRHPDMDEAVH
Set-up: key: below the threshold = too weak to quantify, mostly under pKd 3.1 to 4

Binder | pKd
GFGEERESIL [KIDINS220, Q9ULH0] | 3.87

Each binder was assayed against T9, SIPA1L2, Q9P2F8 (assay: holdup assay). Conditions: plain residues with an end cap or a label only (N-terminal biotin on a linker: ado-ado).
T9 sequence (Q9P2F8 945-1036, limits assumed, looked up): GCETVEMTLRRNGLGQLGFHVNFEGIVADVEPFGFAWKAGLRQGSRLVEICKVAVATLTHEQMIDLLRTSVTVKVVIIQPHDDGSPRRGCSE
Set-up: key: below the threshold = too weak to quantify, mostly under pKd 3.1 to 4

Binder | pKd
GFGEERESIL [KIDINS220, Q9ULH0] | below the threshold

Each binder was assayed against T10, SNTG2, Q9NY99 (assay: holdup assay). Conditions: plain residues with an end cap or a label only (N-terminal biotin on a linker: ado-ado).
T10 sequence (Q9NY99 68-166, limits assumed, looked up): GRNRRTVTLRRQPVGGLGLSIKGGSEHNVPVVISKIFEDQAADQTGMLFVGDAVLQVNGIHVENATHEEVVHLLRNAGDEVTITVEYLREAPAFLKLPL
Set-up: key: below the threshold = too weak to quantify, mostly under pKd 3.1 to 4

Binder | pKd
GFGEERESIL [KIDINS220, Q9ULH0] | 4.31

Each binder was assayed against T11, SYNJ2BP, P57105 (assay: holdup assay). Conditions: plain residues with an end cap or a label only (N-terminal biotin on a linker: ado-ado).
T11 sequence (P57105 8-110, limits assumed, looked up): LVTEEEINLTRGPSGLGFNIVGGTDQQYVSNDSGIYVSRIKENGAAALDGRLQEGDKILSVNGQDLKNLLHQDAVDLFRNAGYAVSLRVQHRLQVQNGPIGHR
Set-up: key: below the threshold = too weak to quantify, mostly under pKd 3.1 to 4

Binder | pKd
GFGEERESIL [KIDINS220, Q9ULH0] | 3.95

What follows are binders tested against T12, TJP3_3, O95049 (assay: holdup assay). Conditions: plain residues with an end cap or a label only (N-terminal biotin on a linker: ado-ado).
T12 sequence (O95049 375-456, limits assumed, looked up): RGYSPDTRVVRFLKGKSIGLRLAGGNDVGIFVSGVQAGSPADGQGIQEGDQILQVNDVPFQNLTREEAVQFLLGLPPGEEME
Set-up: key: below the threshold = too weak to quantify, mostly under pKd 3.1 to 4

Binder | pKd
GFGEERESIL [KIDINS220, Q9ULH0] | below the threshold
